From US20090117593A1, “T. Cruzi-derived neurotrophic agents and methods of use therefor” (Tufts University, priority 2006, published 2009)

Legend:
PC12 cells = test: Protection of PC12 cells from apoptosis induced by trophic factor withdrawal (DAPI, TUNEL); format: cell-based; settings: serum-free RPMI-1640/0.2% BSA, 17 hours, DAPI or TUNEL
Source text: PC12 cells were obtained from ATCC (Manassas, Va. (Accession No. CRL-1721)) and cultured on collagen-coated dishes in RPMI 1640 supplemented with 10% horse serum and 5% fetal bovine serum (Greene, L., and Tishler, A., Proc. Natl. Acad. Sci. USA, 73:2424-2428 (1976)). For differentiation and survival experiments, cells were washed three times in serum-free RPMI/0.2% BSA, plated in the same medium in collagen-coated plastic dishes at 2×10^5/ml, without and with growth factors, TS, recombinant proteins, synthetic peptides, for the time and concentrations indicated in the Figures.
Cell staining with 4,6-diamino-2-phenylindole (DAPI). Cells were fixed with 4% formaldehyde in PBS for 5 minutes, washed with PBS, stained with 10 μg/ml DAPI (Sigma) for 2 minutes, washed with PBS, and visualized under UV light using a fluorescent microscope. About 300-400 cells were examined under the microscope to determine the percentage of apoptotic cells.
Cell DNA nick end labeling (TUNEL) (Gavrieli, Y. et al., J. Cell. Biol., 119:493-501 (1992)) assay was performed using a kit purchased from Boehringer Mannheim as described by the manufacturer.
Protection against apoptosis of PC12 cells in serum-free medium containing a test agent (agent N) (e.g., protection induced by TS, TS fragments, NGF or other growth factors), was calculated by the formula: 100%−[(apoptosis(%) of cells kept in RPMI containing test agent N÷apoptosis (%) of cells kept in RPMI)×100%]. Testing the effect of Wortmannin (Sigma) and LY294002 (Sigma) in inhibiting the neuroprotection of TS was performed following the protocol described by others (Yao, R., and Cooper, G., Science, 267:2003-2006 (1995); D'Mello, et al., J. Neurosci., 17:1548-1560 (1997)). In brief, PC12 cells were switched from growth medium to RPMI without and with TS or various other growth factors. After 24 hours, Wortmannin and LY294002 were added to the cultures. After another 24 hours, cells were examined for apoptosis by the DAPI assay, as above.

Bcl-2 = Bcl-2 gene expression in PC12 cells by RT-PCR; format: cell-based, rat; settings: TS 2.5 ng/ml, CNTF 50 ng/ml, alone or combined, 17 hours
Experimental: Total RNA was extracted from PC12 cells by the acid guanidinum isothiocyanate method (Chomchinski, P., Biotechniques, 15:532-535 (1993)) using TRI-reagent (Molecular Research Center, Inc.) cDNA synthesis was performed according to the instruction of the manufacturer (Gibco-BRL). Reverse transcription reactions were carried out for 50 minutes at 42° C. and were heated to 70° C. for 15 minutes to terminate the reaction using a MiniCycler (MJ Research). Samples were cooled to 4° C. and stored at −20° C. until use.
PCR reactions were performed in 50 μl containing 1.5 μl of template DNA (corresponding to cDNA synthesized from 100 ng of total RNA), 1×PCR buffer, 100 μM of deoxynucleotides, 2.5 mM MgCl2, 10 mM DTT, 10 μM of Bcl-2 primers, and 2 U of Taq DNA polymerase (Gibco-BRL). The synthetic DNA primers for the rat Bcl-2 were: 5′-[…]-3′ (SEQ ID NO:8) and 5′-[…]-3′ (SEQ ID NO:9) to give a PCR product of 566 bp. The sequences for synthetic GAPDH DNA primers (Wong, H. et al., Anal. Biochem., 223: 251-258 (1994)) were: 5′-[…]-3′ (SEQ ID NO:10) and 5′-[…]-3′ (SEQ ID NO:11) giving a PCR produce of 306 base pairs. […] Gels were analyzed by computerized densitometric scanning using Gel doc 1000 (Bio Rad) and Molecular Analyst Software, version 2.1.

B1: CNTF: human ciliary neurotrophic factor; recombinant human and rat CNTF (protein, UniProt P26441 1-200, looked up)
Ciliary neurotrophic factor: MAFTEHSPLTPHRRDLCSRSIWLARKIRSDLTALTESYVKHQGLNKNINLDSADGMPVASTDQWSELTEAERLQENLQAYRTFHVLLARLLEDQQVHFTPTEGDFHQAIHTLLLQVAAFAYQIEELMILLEYKIPRNEADGMPINVGDGGLFEKKLWGLKVLQELSQWTVRSIHDLRFISSHQTGIPARGSHYIANNKKM
B1 was tested, and the “protection of PC12 cells from apoptosis induced by trophic factor withdrawal” value (PC12 cells) was “produced little, if any, protection” and the “bcl-2 mRNA expression in PC12 cells” value (Bcl-2) was “did not induce bcl-2 gene expression individually”.
